Tests used:
[1] = biological target: nuclear factor-κB (NF-κB) p65 subunit, human, wild type (UniProt Q04206)
[2] = biological target: p65 phosphorylation-deficient mutant S276A (UniProt Q04206)
p65 mutant S536A = p65 mutant S536A (UniProt Q04206)
p65 mutant S536A, sequence (Q04206 whole entry S536A): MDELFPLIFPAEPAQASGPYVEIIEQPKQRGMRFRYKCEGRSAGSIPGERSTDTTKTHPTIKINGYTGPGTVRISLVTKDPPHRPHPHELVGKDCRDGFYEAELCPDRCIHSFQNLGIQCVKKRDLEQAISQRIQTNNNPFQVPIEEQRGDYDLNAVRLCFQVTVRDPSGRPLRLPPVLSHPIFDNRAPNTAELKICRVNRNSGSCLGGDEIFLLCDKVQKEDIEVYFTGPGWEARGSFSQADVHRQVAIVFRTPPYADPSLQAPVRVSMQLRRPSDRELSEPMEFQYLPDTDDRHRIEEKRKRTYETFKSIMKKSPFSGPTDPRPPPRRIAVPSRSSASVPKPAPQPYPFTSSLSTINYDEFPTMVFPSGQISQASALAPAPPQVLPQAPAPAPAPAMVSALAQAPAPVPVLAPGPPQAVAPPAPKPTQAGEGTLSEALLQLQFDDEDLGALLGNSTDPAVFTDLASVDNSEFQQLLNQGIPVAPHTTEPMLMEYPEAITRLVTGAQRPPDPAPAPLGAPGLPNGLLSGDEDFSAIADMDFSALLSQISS

p65 phosphorylation-deficient mutant S276A, sequence (Q04206 whole entry S276A): as the sequence (Q04206 whole entry S536A) above, with S276A, A536S counted along it
nuclear factor-κB (NF-κB) p65 subunit, human, wild type, sequence (Q04206 whole entry): as the sequence (Q04206 whole entry S536A) above, with A536S counted along it

Substance | NF-κB promoter activity [1] | phosphorylation of p65 (Phos-tag PAGE) [1] | NF-κB promoter activity [2] | intensity ratio of PKA-Cβ-induced phosphorylation (Phos-tag PAGE) (p65 mutant S536A) | intensity ratio of PKA-Cβ-induced phosphorylation (Phos-tag PAGE) [2]
PKA-Cβ1, human | Co-transfection with PKA-Cβ1 significantly enhanced the p65-induced NF-κB promoter activity | the overexpression of PKA-Cβ1, the major subtype of Cβ in BEAS-2B cells, induced the phosphorylation of p65, which was inhibited by H89 | which was abrogated by co-expressing the S276A mutant of p65 | – | –
protein kinase A catalytic subunit β (PKA-Cβ), human | – | – | – | The intensity ratio of PKA-Cβ-induced phosphorylation was decreased in S276A- and S536A-transfected cells compared to the wild-type p65-transfected cells | The intensity ratio of PKA-Cβ-induced phosphorylation was decreased in S276A- and S536A-transfected cells compared to the wild-type p65-transfected cells

From patent US11045456
